Source: patent publication US20110171229A1

Assays:
[1] = biological target: chondroitin sulfate proteoglycan 4 (CSPG4) (human) (UniProt Q6UVK1); assay: flow cytometry (FACS), CD44+/CD24-/lo putative CSC subpopulation of MDA-MB-435 cells; control antibody
[2] = biological target: chondroitin sulfate proteoglycan 4 (CSPG4) (human) (UniProt Q6UVK1); assay: flow cytometry (FACS), whole cell population of MDA-MB-435 cells; control antibody
[3] = biological target: chondroitin sulfate proteoglycan 4 (CSPG4) (human) (UniProt Q6UVK1); assay: flow cytometry (FACS), whole cell population of HS578T cells; control antibody
[4] = biological target: chondroitin sulfate proteoglycan 4 (CSPG4) (human) (UniProt Q6UVK1); assay: flow cytometry (FACS), whole cell population of SUM-149 cells; control antibody
[5] = biological target: chondroitin sulfate proteoglycan 4 (CSPG4) (human) (UniProt Q6UVK1); assay: flow cytometry (FACS), whole cell population of T-47D cells; control antibody
[6] = biological target: chondroitin sulfate proteoglycan 4 (CSPG4) (human) (UniProt Q6UVK1); assay: flow cytometry (FACS), CD44+/CD24-/lo putative CSC subpopulation of HS578T cells; control antibody
[7] = biological target: chondroitin sulfate proteoglycan 4 (CSPG4) (human) (UniProt Q6UVK1); assay: flow cytometry (FACS), CD44+/CD24-/lo putative CSC subpopulation of MDA-MB-231 cells; control antibody
[8] = biological target: chondroitin sulfate proteoglycan 4 (CSPG4) (human) (UniProt Q6UVK1); assay: flow cytometry (FACS), CD44+/CD24-/lo putative CSC subpopulation of MCF-7 cells; control antibody
[9] = biological target: chondroitin sulfate proteoglycan 4 (CSPG4) (human) (UniProt Q6UVK1); assay: flow cytometry (FACS), whole cell population of MDA-MB-231 cells; control antibody
[10] = biological target: chondroitin sulfate proteoglycan 4 (CSPG4) (human) (UniProt Q6UVK1); assay: flow cytometry (FACS), whole cell population of SK-BR-3 cells; control antibody
[11] = biological target: chondroitin sulfate proteoglycan 4 (CSPG4) (human) (UniProt Q6UVK1); assay: flow cytometry (FACS), whole cell population of MCF-7 cells; control antibody
[12] = biological target: chondroitin sulfate proteoglycan 4 (CSPG4) (human) (UniProt Q6UVK1); assay: flow cytometry (FACS), CD44+/CD24-/lo putative CSC subpopulation of SUM-149 cells; control antibody
[13] = biological target: chondroitin sulfate proteoglycan 4 (CSPG4) (human) (UniProt Q6UVK1); assay: flow cytometry (FACS), CD44+/CD24-/lo putative CSC subpopulation of SUM-149 cells
[14] = biological target: chondroitin sulfate proteoglycan 4 (CSPG4) (human) (UniProt Q6UVK1); assay: flow cytometry (FACS), CD44+/CD24-/lo putative CSC subpopulation of HS578T cells
[15] = biological target: chondroitin sulfate proteoglycan 4 (CSPG4) (human) (UniProt Q6UVK1); assay: flow cytometry (FACS), CD44+/CD24-/lo putative CSC subpopulation of MDA-MB-435 cells
[16] = biological target: chondroitin sulfate proteoglycan 4 (CSPG4) (human) (UniProt Q6UVK1); assay: flow cytometry (FACS), whole cell population of HS578T cells
[17] = biological target: chondroitin sulfate proteoglycan 4 (CSPG4) (human) (UniProt Q6UVK1); assay: flow cytometry (FACS), whole cell population of SUM-149 cells
[18] = biological target: chondroitin sulfate proteoglycan 4 (CSPG4) (human) (UniProt Q6UVK1); assay: flow cytometry (FACS), whole cell population of MCF-7 cells
[19] = biological target: chondroitin sulfate proteoglycan 4 (CSPG4) (human) (UniProt Q6UVK1); assay: flow cytometry (FACS), CD44+/CD24-/lo putative CSC subpopulation of MCF-7 cells
[20] = biological target: chondroitin sulfate proteoglycan 4 (CSPG4) (human) (UniProt Q6UVK1); assay: flow cytometry (FACS), whole cell population of T-47D cells
[21] = biological target: chondroitin sulfate proteoglycan 4 (CSPG4) (human) (UniProt Q6UVK1); assay: flow cytometry (FACS), CD44+/CD24-/lo putative CSC subpopulation of MDA-MB-231 cells
[22] = biological target: chondroitin sulfate proteoglycan 4 (CSPG4) (human) (UniProt Q6UVK1); assay: flow cytometry (FACS), whole cell population of MDA-MB-435 cells
[23] = biological target: chondroitin sulfate proteoglycan 4 (CSPG4) (human) (UniProt Q6UVK1); assay: flow cytometry (FACS), whole cell population of SK-BR-3 cells
[24] = biological target: chondroitin sulfate proteoglycan 4 (CSPG4) (human) (UniProt Q6UVK1); assay: flow cytometry (FACS), whole cell population of MDA-MB-231 cells
[25] = biological target: chondroitin sulfate proteoglycan 4 (CSPG4) (human) (UniProt Q6UVK1); assay: cell-based or functional assay

Chain of UniProt Q6UVK1 (Q6UVK1 30-2322): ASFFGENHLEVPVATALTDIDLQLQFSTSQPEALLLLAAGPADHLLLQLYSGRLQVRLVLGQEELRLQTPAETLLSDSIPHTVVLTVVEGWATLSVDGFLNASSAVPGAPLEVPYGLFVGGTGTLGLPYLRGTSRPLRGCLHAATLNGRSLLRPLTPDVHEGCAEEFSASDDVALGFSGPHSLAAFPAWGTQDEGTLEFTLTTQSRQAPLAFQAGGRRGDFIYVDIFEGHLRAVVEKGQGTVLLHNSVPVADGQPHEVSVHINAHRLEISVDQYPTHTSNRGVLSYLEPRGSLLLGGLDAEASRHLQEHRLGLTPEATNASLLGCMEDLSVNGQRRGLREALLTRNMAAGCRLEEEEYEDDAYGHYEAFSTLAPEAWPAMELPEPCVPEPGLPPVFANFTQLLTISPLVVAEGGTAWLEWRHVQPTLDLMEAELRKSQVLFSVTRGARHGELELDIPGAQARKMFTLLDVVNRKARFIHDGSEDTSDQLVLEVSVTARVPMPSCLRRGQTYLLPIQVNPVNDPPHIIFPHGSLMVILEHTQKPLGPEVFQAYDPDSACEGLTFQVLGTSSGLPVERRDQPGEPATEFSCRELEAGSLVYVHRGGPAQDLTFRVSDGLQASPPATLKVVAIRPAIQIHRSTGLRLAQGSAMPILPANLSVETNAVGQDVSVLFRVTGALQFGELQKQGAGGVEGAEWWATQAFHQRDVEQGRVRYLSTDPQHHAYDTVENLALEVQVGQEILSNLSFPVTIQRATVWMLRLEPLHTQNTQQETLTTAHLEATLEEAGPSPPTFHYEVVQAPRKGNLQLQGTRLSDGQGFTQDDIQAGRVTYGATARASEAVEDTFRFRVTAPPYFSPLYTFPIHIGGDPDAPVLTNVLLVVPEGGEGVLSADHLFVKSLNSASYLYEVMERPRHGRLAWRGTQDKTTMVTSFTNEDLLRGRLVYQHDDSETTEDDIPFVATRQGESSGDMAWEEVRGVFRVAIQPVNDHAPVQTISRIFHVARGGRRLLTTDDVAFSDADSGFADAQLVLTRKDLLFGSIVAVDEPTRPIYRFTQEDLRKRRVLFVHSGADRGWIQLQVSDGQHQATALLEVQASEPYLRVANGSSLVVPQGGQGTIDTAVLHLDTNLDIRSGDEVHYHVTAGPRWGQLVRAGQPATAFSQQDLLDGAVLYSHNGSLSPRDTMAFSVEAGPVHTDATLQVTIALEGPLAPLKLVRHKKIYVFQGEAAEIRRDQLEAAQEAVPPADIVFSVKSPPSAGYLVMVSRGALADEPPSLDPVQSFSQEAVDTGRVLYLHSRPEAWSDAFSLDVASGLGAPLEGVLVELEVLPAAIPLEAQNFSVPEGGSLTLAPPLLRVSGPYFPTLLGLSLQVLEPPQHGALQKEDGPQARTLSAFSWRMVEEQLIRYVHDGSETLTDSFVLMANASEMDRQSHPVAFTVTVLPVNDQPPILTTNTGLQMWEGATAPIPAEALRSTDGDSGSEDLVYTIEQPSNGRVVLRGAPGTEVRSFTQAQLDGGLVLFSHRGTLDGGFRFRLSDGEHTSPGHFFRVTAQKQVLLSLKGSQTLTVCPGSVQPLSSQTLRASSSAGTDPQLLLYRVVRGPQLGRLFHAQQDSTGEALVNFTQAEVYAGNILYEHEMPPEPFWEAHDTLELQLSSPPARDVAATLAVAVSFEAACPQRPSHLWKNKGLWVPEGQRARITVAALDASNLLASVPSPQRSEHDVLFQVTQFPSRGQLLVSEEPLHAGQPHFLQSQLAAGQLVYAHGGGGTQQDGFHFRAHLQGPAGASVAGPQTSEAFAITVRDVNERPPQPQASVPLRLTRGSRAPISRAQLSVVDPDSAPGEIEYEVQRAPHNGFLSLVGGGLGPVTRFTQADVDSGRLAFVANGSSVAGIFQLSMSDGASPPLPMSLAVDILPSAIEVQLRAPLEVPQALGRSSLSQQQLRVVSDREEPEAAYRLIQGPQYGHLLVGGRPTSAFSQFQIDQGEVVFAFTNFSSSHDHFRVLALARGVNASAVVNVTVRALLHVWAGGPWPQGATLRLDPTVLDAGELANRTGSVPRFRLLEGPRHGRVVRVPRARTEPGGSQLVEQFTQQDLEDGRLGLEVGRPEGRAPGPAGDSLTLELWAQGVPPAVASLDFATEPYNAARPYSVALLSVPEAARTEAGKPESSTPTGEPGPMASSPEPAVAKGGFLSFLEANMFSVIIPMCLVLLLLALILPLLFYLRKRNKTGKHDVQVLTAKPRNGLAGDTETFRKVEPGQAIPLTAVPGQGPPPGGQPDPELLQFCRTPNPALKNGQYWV

Substance: Isotype control (antibody)
- % of stained cells [1]: 0.5%
- MFI [1]: 3
- % of stained cells [2]: 0.7%
- MFI [2]: 9.1
- % of stained cells [3]: 0.4%
- MFI [3]: 13
- % of stained cells [4]: 2%
- MFI [4]: 2.7
- % of stained cells [5]: 6.2%
- MFI [5]: 10.4
- % of stained cells [6]: 0.5%
- MFI [6]: 10
- % of stained cells [7]: 0.4%
- MFI [7]: 3.7
- % of stained cells [8]: 0.6%
- MFI [8]: 1.8
- % of stained cells [9]: 0.3%
- MFI [9]: 9.8
- MFI [10]: 4.3
- % of stained cells [11]: 0.7%
- MFI [11]: 6.2
- % of stained cells [12]: 0.5%

Substance: CSPG4-specific mAb 763.74 (antibody)
- % of stained cells [13]: 3%
- MFI [13]: 3.1
- % of stained cells [14]: 33.9%
- MFI [14]: 17.6
- % of stained cells [15]: 96.4%
- MFI [15]: 50.5
- % of stained cells [16]: 61.4%
- MFI [16]: 39.2
- % of stained cells [17]: 1.3%
- MFI [17]: 2.8
- % of stained cells [18]: 17.4%
- MFI [18]: 13.8
- % of stained cells [19]: 2.6%
- MFI [19]: 2.4
- % of stained cells [20]: 0.5%
- MFI [20]: 3.4
- % of stained cells [21]: 16.6%
- MFI [21]: 6.9
- % of stained cells [22]: 93.5%
- MFI [22]: 79.2
- % of stained cells [23]: 0%
- MFI [23]: 2
- % of stained cells [24]: 91.2%
- MFI [24]: 154

Substance: CSPG4-specific mAb TP61.5 (antibody)
- % of stained cells [13]: 51.2%
- MFI [13]: 10.5
- % of stained cells [14]: 72.4%
- MFI [14]: 34.4
- % of stained cells [15]: 98%
- MFI [15]: 93
- % of stained cells [16]: 92.3%
- MFI [16]: 109
- % of stained cells [17]: 51.1%
- MFI [17]: 19.6
- % of stained cells [18]: 3.5%
- MFI [18]: 7.8
- % of stained cells [19]: 9.9%
- MFI [19]: 3.2
- % of stained cells [20]: 0%
- MFI [20]: 2.3
- % of stained cells [21]: 75.6%
- MFI [21]: 33.6
- % of stained cells [22]: 82.4%
- MFI [22]: 61.1
- % of stained cells [23]: 0.1%
- MFI [23]: 2.4
- % of stained cells [24]: 68.3%
- MFI [24]: 86.3

Substance: CSPG4-specific mAb TP41.2 (antibody)
- % of stained cells [13]: 1.4%
- MFI [13]: 2.7
- % of stained cells [14]: 17.6%
- MFI [14]: 14.5
- % of stained cells [15]: 91.9%
- MFI [15]: 40.4
- % of stained cells [16]: 52.6%
- MFI [16]: 34.2
- % of stained cells [17]: 0.9%
- MFI [17]: 2.8
- % of stained cells [18]: 13.8%
- MFI [18]: 11.9
- % of stained cells [19]: 2.5%
- MFI [19]: 2.5
- % of stained cells [20]: 0.3%
- MFI [20]: 2.7
- % of stained cells [21]: 12%
- MFI [21]: 6.1
- % of stained cells [22]: 86.8%
- MFI [22]: 63.3
- % of stained cells [23]: 0.1%
- MFI [23]: 2.1
- % of stained cells [24]: 88.4%
- MFI [24]: 142

Substance: CSPG4-specific mAb 225.28 (antibody)
- % of stained cells [13]: 95.7%
- MFI [13]: 179
- % of stained cells [14]: 71.7%
- MFI [14]: 196
- % of stained cells [15]: 99.7%
- MFI [15]: 694
- % of stained cells [16]: 66.7%
- MFI [16]: 379
- % of stained cells [17]: 93.4%
- MFI [17]: 193
- % of stained cells [18]: 8.5%
- MFI [18]: 12
- % of stained cells [19]: 11.4%
- MFI [19]: 9.8
- % of stained cells [20]: 13%
- MFI [20]: 3.8
- inhibition of adhesion of cells to fibronectin [25]: 45%
- inhibition of cell growth in a 3D matrix setting (TNBC cells) [25]: 70%
- inhibition of motility towards fibronectin in a Boyden chamber assay [25]: 56%
- % of stained cells [21]: 85.7%
- MFI [21]: 53.8
- % of stained cells [22]: 96.1%
- MFI [22]: 714
- % of stained cells [23]: 1.5%
- MFI [23]: 4.6
- % of stained cells [24]: 83.8%
- MFI [24]: 53.8
